1 substance from paper PMC2695398 can be followed below.

Bounds are passed on as bounds.

The assay has as its target Soluble HLA-DR15 (DRA, DRB1*1501) (human). The experiment in a line: fluorescence polarisation. On the technique in general: In fluorescence polarisation assays a small probe gives low polarisation when free and higher when bound to something large.

Substance “Alexa488 labeled derivative of the human myelin basic protein (MBP) 85-99 peptide” had a fold acceleration of peptide binding by DM at pH 4.7 of 15 fold, a fold acceleration of peptide binding by DM at pH 5.6 of 8 fold, a fold acceleration of peptide binding by J10-1 at pH 4.7 of 15.6 fold and a fold acceleration of peptide binding by J10-1 at pH 5.6 of 28 fold. In addition, the fold acceleration of peptide binding by J10-1 at pH 7.1 is 12.6 fold, the fold acceleration of peptide exchange by 10 uM J10-1 came to 15.9 fold, the fold acceleration of peptide exchange by 30 uM J10-1 was 66.4 fold and the fold faster rate of binding with DR15/CLIP than with DR15/pMBP as input complex was > 10 fold. Further, the half-life of the complex (t1/2) with 100 uM J10 was 269 min; the half-life of the complex (t1/2) with 100 uM J10-1 was determined as 116 min; the half-life of the complex (t1/2), no small molecule came to 2100 min.
